Values quoted from earlier work in publication PMC5007751.

Target: RNA helicase A distal portion of helicase domain (Homo sapiens) (UniProt Q08211)
UniProt Q08211, sequence (Q08211 630-1020): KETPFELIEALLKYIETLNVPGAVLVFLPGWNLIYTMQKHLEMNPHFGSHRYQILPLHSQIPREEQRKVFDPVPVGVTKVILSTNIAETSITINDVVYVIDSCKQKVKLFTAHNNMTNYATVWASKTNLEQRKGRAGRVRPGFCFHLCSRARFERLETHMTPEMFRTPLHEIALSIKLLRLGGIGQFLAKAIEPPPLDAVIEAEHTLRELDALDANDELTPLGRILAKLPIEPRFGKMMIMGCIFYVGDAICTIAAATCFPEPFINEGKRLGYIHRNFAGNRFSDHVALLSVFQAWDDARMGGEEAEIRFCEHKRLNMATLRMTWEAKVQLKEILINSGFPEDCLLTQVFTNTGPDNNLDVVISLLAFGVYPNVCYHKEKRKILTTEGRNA

For EWS/FLI (from UniProt Q01844), the Kd is listed as 9.48 µM.
